Assays:
[1] = target: FITC-labelled recombinant human HER2 (human) (UniProt P04626); assay: nanoparticle flow cytometry of CDV incubated with FITC-HER2
[2] = target: FITC-labelled recombinant human HER2 (human) (UniProt P04626); assay: flow cytometry, CDV on aldehyde/sulfate latex beads, FITC-HER2 titrated

scTTZ-gLAMP1 (trastuzumab scFv fused to glycosylated LAMP1) on cell-derived vesicles
percent of CDV with FITC fluorescence [1]: 44.5% | EC50 [2]: 0.94 µg/mL
